Reference: paper doi:10.1101/255976

Assays:
BRCA1;BARD1 = BRCA1;BARD1 (human;human, UniProt P38398;Q99728 1-1863;1-777, |); experiment: EMSA
BRCA1 = BRCA1 (human, UniProt P38398 1-1863); experiment: EMSA

B1: 50 bp DNA:RNA hybrid X12-3 DNA/X12-4C RNA (DNA:RNA)
DNA: GACGTCATAGACGATTACATTGCTAGGACATGCTGTCTAGAGACTATCGC
RNA: GCGAUAGUCUCUAGACAGCAUGUCCUAGCAAUGUAAUCGUCUAUGACGUC
B1: binds (BRCA1;BARD1); binds (BRCA1).
